# System: Escherichia coli TOP10
# Assay: shrunken log2 fold change of peptide-encoding DNA abundance (4.5 h post-induction vs induction); higher = less antimicrobial activity (less host growth inhibition)
# Settings: time post-induction: 4.5 h; library: site-saturation at positions 5, 18, 19, 20
# 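Note: peptides expressed intracellularly from a pBAD plasmid library in pooled LB shake-flask culture, induced with 0.3% L-arabinose, DNA abundance read by NGS, three biological replicates, DESeq2 with apeglm shrinkage.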
row,Sequence,shrunken log2 fold change
1,RRIRIRPPRLPRPRPRPQMGPRP,-0.0795
2,RRIRIRPPRLPRPRPRPLAHPRP,-0.379
3,RRIRVRPPRLPRPRPRPEIHPRP,-0.0841
4,RRIRDRPPRLPRPRPRPNDNPRP,-0.563
5,RRIRGRPPRLPRPRPRPYFYPRP,-0.03
6,RRIRRRPPRLPRPRPRPMIIPRP,-0.171
7,RRIRMRPPRLPRPRPRPWRIPRP,-0.0845
8,RRIRARPPRLPRPRPRPKERPRP,0.415
9,RRIRERPPRLPRPRPRPSVVPRP,-0.213
10,RRIRERPPRLPRPRPRPDDMPRP,-0.0903
11,RRIRGRPPRLPRPRPRPHVLPRP,-0.00476
12,RRIRQRPPRLPRPRPRPVHPPRP,0.211
13,RRIRDRPPRLPRPRPRPFGSPRP,0.0468
14,RRIRVRPPRLPRPRPRPIYEPRP,-0.184
15,RRIRNRPPRLPRPRPRPPTVPRP,0.175
16,RRIRTRPPRLPRPRPRPGLIPRP,-1.04
17,RRIRWRPPRLPRPRPRPHEDPRP,0.185
18,RRIRARPPRLPRPRPRPRDLPRP,-0.162
19,RRIRVRPPRLPRPRPRPHVHPRP,-0.45
20,RRIRMRPPRLPRPRPRPSTVPRP,-0.0552
21,RRIRHRPPRLPRPRPRPFIEPRP,-0.276
22,RRIRRRPPRLPRPRPRPWTLPRP,-0.195
23,RRIRWRPPRLPRPRPRPPMVPRP,0.104
24,RRIRLRPPRLPRPRPRPPFSPRP,-0.25
25,RRIRGRPPRLPRPRPRPAKVPRP,0.431

row,Sequence,shrunken log2 fold change
1,RRIRVRPPRLPRPRPRPAPTPRP,0.638
2,RRIRHRPPRLPRPRPRPSCPPRP,-0.217
3,RRIRARPPRLPRPRPRPYPFPRP,-0.63
4,RRIRNRPPRLPRPRPRPFTRPRP,0.00645
5,RRIRARPPRLPRPRPRPNVGPRP,0.251
6,RRIRYRPPRLPRPRPRPCGHPRP,-0.0238
7,RRIRLRPPRLPRPRPRPKTIPRP,-0.109
8,RRIRTRPPRLPRPRPRPKTWPRP,-0.268
9,RRIRERPPRLPRPRPRPHDTPRP,-0.332
10,RRIRARPPRLPRPRPRPPFVPRP,1.42
11,RRIRSRPPRLPRPRPRPDHSPRP,-0.096
12,RRIRRRPPRLPRPRPRPHSLPRP,-0.113
13,RRIRDRPPRLPRPRPRPSSQPRP,-0.0971
14,RRIRWRPPRLPRPRPRPCSMPRP,-0.565
15,RRIRFRPPRLPRPRPRPWMKPRP,-0.0336
16,RRIRYRPPRLPRPRPRPGMHPRP,-0.339
17,RRIRVRPPRLPRPRPRPGTLPRP,-0.174
18,RRIRLRPPRLPRPRPRPRYFPRP,-0.319
19,RRIRCRPPRLPRPRPRPRQFPRP,0.0823
20,RRIRIRPPRLPRPRPRPISHPRP,-0.0541
21,RRIRFRPPRLPRPRPRPVRDPRP,1.66
22,RRIRIRPPRLPRPRPRPKVEPRP,0.195
23,RRIRCRPPRLPRPRPRPRLSPRP,0.0865
24,RRIRMRPPRLPRPRPRPQNCPRP,0.0712
25,RRIRRRPPRLPRPRPRPHDLPRP,0.22

row,Sequence,shrunken log2 fold change
1,RRIRKRPPRLPRPRPRPCFTPRP,0.135
2,RRIRLRPPRLPRPRPRPAETPRP,0.0382
3,RRIRARPPRLPRPRPRPGCCPRP,0.841
4,RRIRDRPPRLPRPRPRPLWRPRP,0.152
5,RRIRYRPPRLPRPRPRPLGHPRP,0.0209
6,RRIRMRPPRLPRPRPRPHESPRP,0.432
7,RRIRARPPRLPRPRPRPNKFPRP,-0.3
8,RRIRARPPRLPRPRPRPWCEPRP,0.404
9,RRIRDRPPRLPRPRPRPNQNPRP,0.0279
10,RRIRDRPPRLPRPRPRPSFTPRP,-0.404
11,RRIRRRPPRLPRPRPRPVFDPRP,0.348
12,RRIRARPPRLPRPRPRPMWSPRP,0.0725
13,RRIRARPPRLPRPRPRPFIIPRP,-0.264
14,RRIRTRPPRLPRPRPRPSYWPRP,-0.153
15,RRIRERPPRLPRPRPRPCPVPRP,0.0397
16,RRIRVRPPRLPRPRPRPRTFPRP,-0.284
17,RRIRNRPPRLPRPRPRPKEEPRP,0.0169
18,RRIRNRPPRLPRPRPRPYKIPRP,-0.0214
19,RRIRKRPPRLPRPRPRPRRFPRP,0.39
20,RRIRNRPPRLPRPRPRPITMPRP,-0.533
21,RRIRVRPPRLPRPRPRPEVDPRP,0.296
22,RRIRDRPPRLPRPRPRPLSEPRP,0.111
23,RRIRWRPPRLPRPRPRPEWTPRP,0.0673
24,RRIRPRPPRLPRPRPRPRADPRP,0.335
25,RRIRDRPPRLPRPRPRPSCAPRP,-0.0293

row,Sequence,shrunken log2 fold change
1,RRIRRRPPRLPRPRPRPMITPRP,-0.172
2,RRIRRRPPRLPRPRPRPGWRPRP,0.425
3,RRIRVRPPRLPRPRPRPMIHPRP,-0.465
4,RRIRARPPRLPRPRPRPGYWPRP,0.363
5,RRIRIRPPRLPRPRPRPRKWPRP,0.0966
6,RRIRQRPPRLPRPRPRPEAIPRP,-0.0935
7,RRIRERPPRLPRPRPRPFHVPRP,-0.854
8,RRIRQRPPRLPRPRPRPVLKPRP,-0.108
9,RRIRQRPPRLPRPRPRPVCEPRP,-0.00878
10,RRIRPRPPRLPRPRPRPNAFPRP,-0.0225
11,RRIRDRPPRLPRPRPRPLAAPRP,0.913
12,RRIRKRPPRLPRPRPRPAWCPRP,0.0965
13,RRIRTRPPRLPRPRPRPSYCPRP,0.0739
14,RRIRYRPPRLPRPRPRPQREPRP,-0.00996
15,RRIRDRPPRLPRPRPRPKSDPRP,0.295
16,RRIRNRPPRLPRPRPRPFMEPRP,-0.167
17,RRIRYRPPRLPRPRPRPCIYPRP,-0.207
18,RRIRWRPPRLPRPRPRPAEPPRP,0.256
19,RRIRMRPPRLPRPRPRPQPHPRP,0.46
20,RRIRWRPPRLPRPRPRPYSLPRP,-0.201
21,RRIRNRPPRLPRPRPRPNVVPRP,-0.122
22,RRIRQRPPRLPRPRPRPFPFPRP,-0.00711
23,RRIRNRPPRLPRPRPRPMIAPRP,-0.42
24,RRIRARPPRLPRPRPRPTVNPRP,-0.0152
25,RRIRQRPPRLPRPRPRPTSYPRP,-0.154

row,Sequence,shrunken log2 fold change
1,RRIRGRPPRLPRPRPRPSAYPRP,1.07
2,RRIRIRPPRLPRPRPRPICWPRP,0.307
3,RRIRKRPPRLPRPRPRPMKFPRP,-0.0265
4,RRIRQRPPRLPRPRPRPIWNPRP,-0.183
5,RRIRFRPPRLPRPRPRPRSNPRP,-0.336
6,RRIRMRPPRLPRPRPRPFTSPRP,-0.0967
7,RRIRWRPPRLPRPRPRPKCLPRP,-0.197
8,RRIRIRPPRLPRPRPRPWCHPRP,-0.122
9,RRIRRRPPRLPRPRPRPDSLPRP,0.0868
10,RRIRQRPPRLPRPRPRPYSKPRP,-0.119
11,RRIRPRPPRLPRPRPRPSWSPRP,-0.0705
12,RRIRFRPPRLPRPRPRPTCDPRP,-0.0372
13,RRIRRRPPRLPRPRPRPTPLPRP,0.744
14,RRIRIRPPRLPRPRPRPYHDPRP,-0.28
15,RRIRYRPPRLPRPRPRPPTSPRP,-0.0241
16,RRIRRRPPRLPRPRPRPIEVPRP,0.0048
17,RRIRRRPPRLPRPRPRPGRVPRP,0.593
18,RRIRFRPPRLPRPRPRPHKAPRP,0.0324
19,RRIRARPPRLPRPRPRPLLCPRP,0.612
20,RRIRFRPPRLPRPRPRPTCSPRP,-0.0827
21,RRIRMRPPRLPRPRPRPVLGPRP,0.741
22,RRIRTRPPRLPRPRPRPYLVPRP,-0.489
23,RRIRWRPPRLPRPRPRPIAHPRP,-0.074
24,RRIRHRPPRLPRPRPRPYLIPRP,-0.574
25,RRIRSRPPRLPRPRPRPSMMPRP,-0.105

row,Sequence,shrunken log2 fold change
1,RRIRFRPPRLPRPRPRPTAHPRP,0.193
2,RRIRLRPPRLPRPRPRPVAYPRP,-0.438
3,RRIRPRPPRLPRPRPRPGEEPRP,0.359
4,RRIRFRPPRLPRPRPRPLAEPRP,-0.0472
5,RRIRSRPPRLPRPRPRPIWNPRP,-0.316
6,RRIRCRPPRLPRPRPRPVKIPRP,0.108
7,RRIRRRPPRLPRPRPRPSFLPRP,-0.268
8,RRIRWRPPRLPRPRPRPNGFPRP,0.128
9,RRIRSRPPRLPRPRPRPMKWPRP,0.053
10,RRIRMRPPRLPRPRPRPCWEPRP,-0.0572
11,RRIRYRPPRLPRPRPRPCVCPRP,-1.24
12,RRIRDRPPRLPRPRPRPTRDPRP,0.734
13,RRIRYRPPRLPRPRPRPQYWPRP,-0.696
14,RRIRSRPPRLPRPRPRPMPMPRP,0.0988
15,RRIRTRPPRLPRPRPRPALKPRP,0.206
16,RRIRFRPPRLPRPRPRPVHRPRP,-0.261
17,RRIRYRPPRLPRPRPRPMAKPRP,-0.0343
18,RRIRERPPRLPRPRPRPMTLPRP,-0.000163
19,RRIRKRPPRLPRPRPRPCKIPRP,-0.248
20,RRIRIRPPRLPRPRPRPIVHPRP,-0.642
21,RRIRLRPPRLPRPRPRPDGEPRP,-0.00819
22,RRIRERPPRLPRPRPRPAEKPRP,-0.0431
23,RRIRYRPPRLPRPRPRPYCQPRP,-0.465
24,RRIRTRPPRLPRPRPRPEVWPRP,0.546
25,RRIRARPPRLPRPRPRPLRAPRP,1.19
